This data set is described as follows: total protein half-life in vivo (active degradation + dilution); higher = more stable protein.
The mark [1] stands for this setting: E. coli NCM3722 delta-clpP delta-lon delta-hslV, growth: N-lim chemostat, doubling time 6 h.
The mark [2] stands for this setting: E. coli NCM3722 delta-clpP, growth: N-lim chemostat, doubling time 6 h.
[3] abbreviates: E. coli NCM3722 delta-hslV, growth: N-lim chemostat, doubling time 6 h.
Setting [4] is: E. coli NCM3722 delta-smpB, growth: N-lim chemostat, doubling time 6 h.
[5] abbreviates: wild type E. coli NCM3722, growth: C-lim chemostat, doubling time 3 h.
The mark [6] stands for this setting: wild type E. coli NCM3722, growth: C-lim chemostat, doubling time 6 h.
[7] abbreviates: wild type E. coli NCM3722, growth: C-lim chemostat, doubling time 12 h.
Setting [8] is: wild type E. coli NCM3722, growth: N-lim chemostat, doubling time 6 h.
[9] abbreviates: wild type E. coli NCM3722, growth: P-lim chemostat, doubling time 6 h.
Setting [10] is: wild type E. coli NCM3722, growth: P-lim chemostat, doubling time 12 h.
Where [11] appears, read: E. coli NCM3722 delta-lon, growth: N-lim chemostat, doubling time 6 h.
Setting [12] is: wild type E. coli NCM3722, growth: N-lim chemostat, doubling time 12 h.

The source of these data is the supplement of paper PMC11246515.

± gives the standard deviation of the averaged measurements.

“MNKSGKYLVWTVLSVMGAFALGYIALNRGEQINALWIVVASVCIYLIAYRFYGLYIAKNVLAVDPTRMTPAVRHNDGLDYVPTDKKVLFGHHFAAIAGAGPLVGPVLAAQMGYLPGMIWLLAGVVLAGAVQDFMVLFVSTRRDGRSLGELVKEEMGPTAGVIALVACFMIMVIILAVLAMIVVKALTHSPWGTYTVAFTIPLALFMGIYLRYLRPGRIGEVSVIGLVFLIFAIISGGWVAESPTWAPYFDFTGVQLTWMLVGYGFVAAVLPVWLLLAPRDYLSTFLKIGTIVGLAVGILIMRPTLTMPALTKFVDGTGPVWTGNLFPFLFITIACGAVSGFHALISSGTTPKMLANEGQACFIGYGGMLMESFVAIMALVSACIIDPGVYFAMNSPMAVLAPAGTADVVASAAQVVSSWGFSITPDTLNQIASEVGEQSIISRAGGAPTLAVGMAYILHGALGGMMDVAFWYHFAILFEALFILTAVDAGTRAARFMLQDLLGVVSPGLKRTDSLPANLLATALCVLAWGYFLHQGVVDPLGGINTLWPLFGIANQMLAGMALMLCAVVLFKMKRQRYAWVALVPTAWLLICTLTAGWQKAFSPDAKVGFLAIANKFQAMIDSGNIPSQYTESQLAQLVFNNRLDAGLTIFFMVVVVVLALFSIKTALAALKDPKPTAKETPYEPMPENVEEIVAQAKGAH”: the “total protein half-life in vivo” value was 5.72 h under setting [1]; 4.33 h under setting [2]; 4.49 ± 0.2 h under setting [3]; 4.96 ± 1.1 h under setting [4]; 3.36 ± 0.37 h under setting [5]; 5.34 ± 0.24 h under setting [6]. For the same sequence, the “total protein half-life in vivo” value under setting [7] was 11.7 ± 0.39 h, the “total protein half-life in vivo” value under setting [8] came out at 5.33 ± 0.76 h, the “total protein half-life in vivo” value under setting [9] is 5.517 ± 0.042 h and the “total protein half-life in vivo” value under setting [10] came out at 10.3 ± 0.19 h.
As to “MFDFASYHRAATLADAINLLADNPQAKLLAGGTDVLIQLHHHNDRYRHIVDIHNLAELRGITLAEDGSLRIGSATTFTQLIEDPITQRHLPALCAAATSIAGPQIRNVATYGGNICNGATSADSATPTLIYDAKLEIHSPRGVRFVPINGFHTGPGKVSLEHDEILVAFHFPPQPKEHAGSAHFKYAMRDAMDISTIGCAAHCRLDNGNFSELRLAFGVAAPTPIRCQHAEQTAQNAPLNLQTLEAISESVLQDVAPRSSWRASKEFRLHLIQTMTKKVISEAVAAAGGKLQ”, the “total protein half-life in vivo” value turned out to be 4.54 ± 1.2 h under setting [1]; 2.5 ± 0.1 h under setting [2]; 3.19 h under setting [3]; 3.61 ± 0.29 h under setting [11]; 2.379 ± 0.0096 h under setting [4]; 2.25 ± 0.11 h under setting [5]. For the same sequence, the “total protein half-life in vivo” value under setting [6] came out at 4.84 ± 0.91 h; the “total protein half-life in vivo” value under setting [7] turned out to be 6.07 ± 0.36 h; the “total protein half-life in vivo” value under setting [8] stood at 2.52 ± 0.089 h; the “total protein half-life in vivo” value under setting [12] was found to be 4 h; the “total protein half-life in vivo” value under setting [9] worked out at 4.56 ± 0.36 h; the “total protein half-life in vivo” value under setting [10] worked out at 9.6 ± 1.6 h.
For the sequence “MNALLSNPFKERLRKGEVQIGLWLSSTTAYMAEIAATSGYDWLLIDGEHAPNTIQDLYHQLQAVAPYASQPVIRPVEGSKPLIKQVLDIGAQTLLIPMVDTAEQARQVVSATRYPPYGERGVGASVARAARWGRIENYMAQVNDSLCLLVQVESKTALDNLDEILDVEGIDGVFIGPADLSASLGYPDNAGHPEVQRIIETSIRRIRAAGKAAGFLAVAPDMAQQCLAWGANFVAVGVDTMLYSDALDQRLAMFKSGKNGPRIKGSY”, the “total protein half-life in vivo” value amounted to 2.69 ± 0.27 h under setting [2]; 2.17 h under setting [4]; 2.74 h under setting [5]; 4.08 h under setting [6]; 6.62 ± 0.94 h under setting [7]; 3.25 h under setting [12].
Regarding “MLKFIQNNREITALLAVVLLFVLPGFLDRQYLSVQTLTMVYSSAQILILLAMGATLVMLTRNIDVSVGSITGMCAVLLGMLLNAGYSLPVACVATLLLGLLAGFFNGVLVAWLKIPAIVATLGTLGLYRGIMLLWTGGKWIEGLPAELKQLSAPLLLGVSAIGWLTIILVAFMAWLLAKTAFGRSFYATGDNLQGARQLGVRTEAIRIVAFSLNGCMAALAGIVFASQIGFIPNQTGTGLEMKAIAACVLGGISLLGGSGAIIGAVLGAWFLTQIDSVLVLLRIPAWWNDFIAGLVLLAVLVFDGRLRCALERNLRRQKYARFMTPPPSVKPASSGKKREAA”, the “total protein half-life in vivo” value reads like this: under setting [5], 3.42 h; under setting [6], 5.06 ± 1.6 h; under setting [7], 7.51 ± 1.3 h.
Take “MNINVAELLNGNYILLLFVVLALGLCLGKLRLGSIQLGNSIGVLVVSLLLGQQHFSINTDALNLGFMLFIFCVGVEAGPNFFSIFFRDGKNYLMLALVMVGSALVIALGLGKLFGWDIGLTAGMLAGSMTSTPVLVGAGDTLRHSGMESRQLSLALDNLSLGYALTYLIGLVSLIVGARYLPKLQHQDLQTSAQQIARERGLDTDANRKVYLPVIRAYRVGPELVAWTDGKNLRELGIYRQTGCYIERIRRNGILANPDGDAVLQMGDEIALVGYPDAHARLDPSFRNGKEVFDRDLLDMRIVTEEVVVKNHNAVGKRLAQLKLTDHGCFLNRVIRSQIEMPIDDNVVLNKGDVLQVSGDARRVKTIADRIGFISIHSQVTDLLAFCAFFVIGLMIGMITFQFSTFSFGMGNAAGLLFAGIMLGFMRANHPTFGYIPQGALSMVKEFGLMVFMAGVGLSAGSGINNGLGAIGGQMLIAGLIVSLVPVVICFLFGAYVLRMNRALLFGAMMGARTCAPAMEIISDTARSNIPALGYAGTYAIANVLLTLAGTIIVMVWPGLG”: the “total protein half-life in vivo” value runs as follows: under setting [1], 6.56 ± 0.66 h; under setting [2], 6.38 ± 1 h; under setting [4], 6.19 ± 0.91 h; under setting [6], 7.06 ± 0.39 h; under setting [8], 6.17 ± 0.47 h; under setting [9], 7.316 ± 0.023 h. Under setting [10], the “total protein half-life in vivo” value turned out to be 12 ± 2.5 h.
With “MTPILNHYFARINWSGAAAVNIDTLRALHLKHNCTIPFENLDVLLPREIQLDNQSPEEKLVIARRGGYCFEQNGVFERVLRELGFNVRSLLGRVVLSNPPALPPRTHRLLLVELEEEKWIADVGFGGQTLTAPIRLVSDLVQTTPHGEYRLLQEGDDWVLQFNHHQHWQSMYRFDLCEQQQSDYVMGNFWSAHWPQSHFRHHLLMCRHLPDGGKLTLTNFHFTHYENGHAVEQRNLPDVASLYAVMQEQFGLGVDDAKHGFTVDELALVMAAFDTHPEAGK”, the “total protein half-life in vivo” value by setting is: under setting [2], 2.34 ± 0.39 h; under setting [3], 3.1 h; under setting [11], 4.618 ± 0.018 h; under setting [4], 2.15 ± 0.18 h; under setting [6], 2.81 h; under setting [7], 4.65 h. In addition, the “total protein half-life in vivo” value amounted to 3.11 ± 0.3 h under setting [8], 5.26 ± 0.66 h under setting [12] and 3.88 h under setting [10].
On to “MPPRALLLVDLQNDFCAGGALAVPEGDSTVDVANRLIDWCQSRGEAVIASQDWHPANHGSFASQHGVEPYTPGQLDGLPQTFWPDHCVQNSEGAQLHPLLHQKAIAAVFHKGENPLVDSYSAFFDNGRRQKTSLDDWLRDHEIDELIVMGLATDYCVKFTVLDALQLGYKVNVITDGCRGVNIQPQDSAHAFMEMSAAGATLYTLADWEETQG”, for which the “total protein half-life in vivo” value runs as follows: under setting [1], 4.67 ± 0.11 h; under setting [2], 3.93 ± 0.17 h; under setting [11], 4.52 ± 1.1 h; under setting [4], 3.78 ± 0.19 h; under setting [5], 3.05 ± 0.12 h; under setting [6], 6.27 ± 1.3 h. In addition, the “total protein half-life in vivo” value is 10.1 ± 0.99 h under setting [7]; 4.16 ± 0.32 h under setting [8]; 6.53 h under setting [12]; 4.76 h under setting [9]; 11.1 ± 0.22 h under setting [10].
Take “MQTTQQNAPLKRTMKTRHLIMLSLGGVIGTGLFFNTGYIISTTGAAGTLLAYLIGALVVWLVMQCLGELSVAMPETGAFHVYAARYLGPATGYTVAWLYWLTWTVALGSSFTAAGFCMQYWFPQVPVWVWCVVFCAIIFGLNVISTRFFAEGEFWFSLVKVVTIIAFIILGGAAIFGFIPMQDGSPAPGLSNITAEGWFPHGGLPILMTMVAVNFAFSGTELIGIAAGETENPRKVIPVAIRTTIARLIIFFIGTVFVLAALIPMQQVGVEKSPFVLVFEKVGIPYAADIFNFVILTAILSAANSGLYASGRMLWSLSNERTLPACFARVTKNGVPLTALSVSMLGGVLALFSSVVAPDTVFVALSAISGFAVVAVWLSICASHFVFRRRHLQQGKALSELHYRAPWYPLVPVLGFVLCLVACVGLAFDPAQRIALWCGLPFVALCYGAYFLTQPRNAKQEPEHVAE”: the “total protein half-life in vivo” value under setting [1] worked out at 3.09 ± 0.25 h; the “total protein half-life in vivo” value under setting [2] turned out to be 1.78 h; the “total protein half-life in vivo” value under setting [3] worked out at 3.13 h; the “total protein half-life in vivo” value under setting [4] worked out at 2.51 ± 0.28 h; the “total protein half-life in vivo” value under setting [5] came out at 3.05 ± 0.71 h; the “total protein half-life in vivo” value under setting [6] was found to be 4.13 ± 0.25 h. For the same sequence, the “total protein half-life in vivo” value runs as follows: under setting [7], 7.02 ± 0.5 h; under setting [8], 3.79 h; under setting [9], 3.63 ± 0.43 h; under setting [10], 7.23 h.
Regarding “MYDFVIIGGGIIGMSTAMQLIDVYPDARIALLEKESAPACHQTGHNSGVIHAGVYYTPGSLKAQFCLAGNRATKAFCDQNGIRYDNCGKMLVATSDLEMERMRALWERTAANGIEREWLNADELREREPNITGLGGIFVPSSGIVSYRDVTAAMAKIFQSRGGEIIYNAEVSGLNEHKNGVVIRTRQGGEYEASTLISCSGLMADRLVKMLGLEPGFIICPFRGEYFRLAPEHNQIVNHLIYPIPDPAMPFLGVHLTRMIDGSVTVGPNAVLAFKREGYRKRDFSFSDTLEILGSSGIRRVLQNHLRSGLGEMKNSLCKSGYLRLVQKYCPRLSLSDLQPWPAGVRAQAVSPDGKLIDDFLFVTTPRTIHTCNAPSPAATSAIPIGAHIVSKVQTLLASQSNPGRTLRAARSVDALHAAFNQ”, the “total protein half-life in vivo” value is, setting by setting: under setting [1], 5.44 ± 0.2 h; under setting [2], 6.32 ± 1.6 h; under setting [3], 5.3 ± 0.37 h; under setting [11], 4.94 ± 0.065 h; under setting [4], 4.58 ± 0.47 h; under setting [5], 2.7 ± 0.3 h. The “total protein half-life in vivo” value by setting is: under setting [6], 5.48 ± 0.23 h; under setting [7], 9.35 ± 0.39 h; under setting [8], 5.4 ± 0.44 h; under setting [12], 9.37 ± 0.29 h; under setting [9], 4.51 ± 0.93 h; under setting [10], 10.8 ± 0.21 h.
As for “MKTINTVVAAMALSTLSFGVFAAEPVTASQAQNMNKIGVVSADGASTLDALEAKLAEKAAAAGASGYSITSATNNNKLSGTAVIYK [P0AAX3]”, under setting [4], the “total protein half-life in vivo” value is 0.346 h.
As to “MEISFTRVALLAAALFFVGCDQKPQPAKTHATEVTVLEGKTMGTFWRASIPGIDAKRSAELKEKIQTQLDADDQLLSTYKKDSALMRFNDSQSLSPWPVSEAMADIVTTSLRIGAKTDGAMDITVGPLVNLWGFGPEQQPVQIPSQEQIDAMKAKTGLQHLTVINQSHQQYLQKDLPDLYVDLSTVGEGYAADHLARLMEQEGISRYLVSVGGALNSRGMNGEGLPWRVAIQKPTDKENAVQAVVDINGHGISTSGSYRNYYELDGKRLSHVIDPQTGRPIEHNLVSVTVIAPTALEADAWDTGLMVLGPEKAKEVVRREGLAVYMITKEGDSFKTWMSPQFKSFLVSEKN [P0AB85]”, the “total protein half-life in vivo” value reads like this: under setting [1], 6.34 ± 0.12 h; under setting [2], 6.53 ± 0.012 h; under setting [3], 5.8 ± 0.66 h; under setting [11], 6.9 ± 0.33 h; under setting [4], 5.97 ± 0.26 h; under setting [5], 2.9 ± 0.21 h. Moreover, the “total protein half-life in vivo” value is 6.95 ± 0.84 h under setting [6]; 11.9 ± 0.74 h under setting [7]; 6.29 ± 0.19 h under setting [8]; 12.3 ± 1.8 h under setting [12]; 6.3 ± 1.1 h under setting [9]; 13.4 ± 0.18 h under setting [10].
